{"source": "patent CN113912709A", "about": "(SHENZHEN NATIONAL CLINICAL RES CENTER FOR INFECTIOUS …, dated 2022)", "data": [{"target": "T1, SARS-CoV-2 RBD protein L452R mutant (SARS-CoV-2, UniProt P0DTC2 319-541)", "T1 construct": "domain: RBD", "assay": "SPR, Biacore 8K, RBD on CM5 chip, IgG injected, 1:1 model", "units": {"Kd": "nM"}, "values": [{"binder": "VacW-138 (antibody, V domains shown) VH: not shown VL: AIQLTQSPFSLSASVGDRVTITCRASQGISSALAWYQQKPGKAPKLLIYDASSLESGVPSRFSGSGSGTDFTLTISSLQPEDFATYFCQQVDTYQFTFGPGTKVDIK", "Kd": 1.96}, {"binder": "VacW-201 (antibody, V domains shown) VH: EVQLVESGGGLVQPGGSLRLSCAASGFTFSSYWMNWVRQAPGKGLEWVANIKQDGSEKYYVDSVKGRFTISRDNAKNSLYLQMNSLRAEDTAVYYCARMEYPYGGVDYWGQGTLVTVSS VL: NFMLTQPHSVSESPGKTVTISCTGSSGSIASNYVQWYQQRPGSAPTTVIYEDNQRPSGVPDRFSGSIDSSSNSASLTISGLKTEDEADYYCQSYDSSNRNWVFGGGTKLTVL", "Kd": 1.57}, {"binder": "VacW-215 (antibody, V domains shown) VH: EVQLVESGGGLIQPGGSLRLSCAASGFTVSSNYMSWVRQAPGKGLEWVSVIYSGGSTYYADSVKGRFTISRDNSKNTLYLQMNSLRAEDTAVYYCARSTWLRGGFDYWGQGTLVTVSS VL: NFMLTQPHSVSESPGKTVTISCTGSSGSIASNYVQWYQQRPGSAPTTVIYEDNQRPSGVPDRFSGSIDSSSNSASLTISGLKTEDEADYYCQSYDSSNHFYVFGTGTKVTVL", "Kd": 0.714}, {"binder": "VacW-212 (antibody, V domains shown) VH: EVQLVESGGGLVQPGGSLRLSCAASGFTFSSYWMNWVRQAPGKGLEWVANIKQDESEKYYVDSVKGRFTISRDNAKNSLFLQMNSLRVEDTAVYYCARMEYPYGGIDYWGQGTLVTVSA VL: NFMLTQPHSVSESPGKTVTISCTGSSGSIASNYVQWYQQRPGSAPTTVIYEDNQRPSGVPDRFSGSIDSSSNSASLTISGLKTEDEADYYCQSYDSSNRNWVFGGGTKLTVL", "Kd": 1.2}, {"binder": "VacW-105 (antibody, V domains shown) VH: QVQLVQSGAEVKKPGSSVKVSCKASGGTFRSYTISWVRQAPGQGLEWMGRILPILGIANYAQKFQGRVTITADKSTSTAYMELSSLRSEDTAVYYCARVTGAPVESAAWFDPWGQGTLVTVSS VL: not shown", "Kd": 3.69}, {"binder": "VacW-209 (antibody, V domains shown) VH: QVQLVESGGGVVQPGRSLRLSCAASGFTFSSIAMHWVRQAPGKGLEWVAVMSFDGSIKYYGDSVKGRFTISRDNSKSTLYLQMNSLRAEDTAVYYCARGVQGYYDRSGYYNLDYNYGMDVWGQGTTVTVSS VL: QSVLTQPPSVSGAPGQRVTISCTGSSSNIGAGYDVHWYQQLPGTAPKLLIYGNSNRPSGVPDRFSGSKSGTSASLAITGLQAEDEADYYCQSYDSSLSGWVFGGGTKLTVL", "Kd": 0.0237}]}]}
